Values joined by “and” are separate entries in the source; they are usually repeats but may differ in a detail not shown here. Equal values may be shown once.
Key:
Abeta 1-42 globulomer [1] = target: T1, Abeta 1-42 globulomer (Homo sapiens, UniProt P05067); assay: Globulomer capture assay in CSF (Example 6); type: binding; conditions: 4 ng/mL globulomer spiked; FIG. 29
T1 construct: beta amyloid (1-42) was monomerized with incubation in hexafluoroisopropanol

[2] = target: T2, oligomeric beta amyloid 1-42 (globulomer) (Homo sapiens, UniProt P05067); assay: Misfolded Protein Assay: capture of globulomer spiked into CSF (Example 2); type: binding; conditions: globulomer-spiked CSF vs normal CSF; reagent on Dynal M270 beads
T2 construct: beta amyloid (1-42) was monomerized with incubation in hexafluoroisopropanol
Method: To assess the ability of these reagents to capture protein aggregates, the previously described Misfolded Protein Assay or MPA (Lau et al., 2007, PNAS, 104: 11551) was used (FIG. 3). In this assay, the capture reagent of interest is attached to beads which are incubated with a sample of interest containing a mixture of normal monomeric and aggregated proteins to allow for capture and then washed to remove unbound material. After this enrichment step, an elution buffer is used to dissociate the captured material from the beads as well as to denature any aggregates. The eluted material is then applied to a sandwich ELISA that is specific for the protein of interest. Strong aggregate-binding reagents acting as effective capture reagents show a high signal from the sample containing a mixture of monomers and aggregates, but not from the control sample, which contains only physiologic levels of monomeric protein.
Beads displaying carboxylic acids were treated with EDC and BMPH to create maleimide-displaying beads, to which thiolated peptides (or other thiolated organic molecules) were added through a Michael addition reaction. Dynal M270 magnetized beads (30 mg/mL bead) displaying carboxylic acids were vortexed and placed into a 15 ml falcon tube. The tube was placed into a magnet, and the supernatant removed. The beads were washed 2 times with 0.1 M MES buffer, pH 5, and then the washing buffer was removed. The coupling solution (33 mM BMPH, 130 mM EDC in MES buffer) was added, and the tube was rocked for 30 minutes at room temperature. After washing in 1×MES, 1× Tris, pH 7.5, the beads were quenched with Tris buffer (50 mM Tris buffer, pH 7.5) for 15 minutes. The beads were then washed 2 times in phosphate buffer and added to 5 mM thiolated ligand in degassed phosphate. The beads were rotated for 21 hours, then washed in 0.1 M phosphate buffer, pH 7, 1×PBS, and stored.
To prepare the globulomer, beta amyloid (1-42) was monomerized with incubation in hexafluoroisopropanol. The hexafluoroisopropanol was removed by vacuum centrifugation. DMSO, PBS, and 2% SDS were then added to the sample. The sample was vortexed and sonicated and then incubated at 37° C. After 6 hours, the sample was diluted with water, vortexed, and incubated at 37° C. for an additional 19 hours. The sample was ultracentrifuged at 135000×g for 1 hour at 4° C., and the supernatant retained. The globulomers were spiked into CSF for the assay.
Aliquots of beads conjugated to various reagents were added to wells of a 96-well plate. Globulomer-spiked CSF in a Tris buffer was added to each well, and the plates were incubated for 1 hour at 37° C. with shaking. For the negative control, normal CSF was used, which is considered to contain only monomers of beta amyloid. The beads were washed with TBST wash buffer, and bound materials were eluted with a denaturing solution (typically 0.1-0.15 N NaOH). A reconditioning buffer was added to the eluate prior to beta amyloid detection via a beta amyloid (1-42) specific sandwich ELISA.
In order to determine the amount of ligand loading, amine quanitation was used. Aliquots of beads were placed in a magnet, and the supernatant removed. 80% phenol in ethanol, 0.2 mM KCN in pyridine/water, and 6% ninhydrin in ethanol was added to each tube. The aliquots were vortexed and heated for 7 minutes at 100° C. After cooling to room temperature, 60% ethanol was added. The tubes were placed in a magnet, and the absorbance of the supernatant at 570 nm was determined. The loading of the beads was determined according to Beer's law, using the extinction coefficient of 15000 M-1 cm-1.
Beads (3 ul or 15 ul) were added to samples containing 0.5 ng/mL globulomer spiked into CSF. […] For PSR1, this limit was ˜5 nmol ligand/mg bead for binding preferentially to globulomer. […]

Abeta 1-42 globulomer [3] = target: T1, Abeta 1-42 globulomer; assay: Globulomer capture assay in CSF (Example 6); type: binding
Method: (§1) A series of new potential aggregate-specific binding reagents were designed as shown below and conjugated onto magnetic Dynal M270 beads as described in Example 2. Typically 7-12 nmol of ligand (each candidate aggregate-specific binding reagent) was coated onto 1 mg of beads.
(§2) Aliquots of the beads (typically 3 ul) were added to wells of a 96 well plate, followed by sample (with or without Abeta 1-42 globulomer (an Abeta42 oligomer model) spiked in 80:20 CSF:TBSTT, typically 125 ul). The plate was sealed and incubated for 1 hour at 37° C. with shaking. The plate was washed with aqueous solutions of detergent (typically polyethylene glycol sorbitan monolaurate and n-tetradecyl-N,N-dimethyl-3-ammonio-1-propanesulfonate) to remove ubound material and the residual buffer removed. A denaturing solution (typically 0.1-0.15 N NaOH) was added to each well and the plate heated to 80° C. for 30 min with shaking. After cooling the plate to room temperature, a neutralizing buffer (typically 0.12-0.18 M NaH2PO3 in 0.4% TWEEN20,) was added and the plate was shaken briefly at room temperature. The bead eluate was analyzed using either an Aβ42-specific ELISA or the MSD® 96-Well MULTI-SPOT® Human/Rodent [4G8] Abeta Triplex Ultra-Sensitive Assay from Meso Scale Discovery (Gaithersburg, Md.). For the Aβ42-specific assay, the samples were eluted from the beads and a detection antibody (4G8 HRP) was added to a plate bearing the Aβ42-specific antibody 12F4. The plate was incubated for 1 hour, washed, the substrate was added (SuperSignal West Femto Maximum Sensitivity Substrate from Thermo Fisher, Rockville, Md.), and the luminescence was measured. The MSD plate assay was performed in a similar fashion, according to the manufacturer's protocol.
(§3) In this experiment the preferred number of charges within a given scaffold was identified. An Ala/Lys peptide framework was utilized, where the inclusion of each Lys residue increases the peptides' net charge by +1. Six hexapeptides with increasing charge (+1→+6), AAAKAA, AAKKAA, AAKKKA, AKKKKA, AKKKKK, and KKKKKK, were prepared and conjugated on the beads. The ability of these beads to capture Abeta 1-42 globulomer spiked at 1 ng/mL into CSF was tested, and the result is shown in FIG. 25. The globulomer capture level (“42 1 ng/ml” or the closed bars) was compared to the background signal of Abeta 1-42 detected in the unspiked CSF (“42 0 ng/ml”) and the background signal of Abeta 1-40 detected in unspiked CSF (“40 0 ng/ml”) or CSF spiked with AB42 oligomers “40 1 ng/ml”. The charge density, as conjugated to the magnetic beads, of each reagent evaluated in this experiment is shown below in Table 8.

Abeta 1-40 monomer = target: T3, Abeta 1-40 monomer (Homo sapiens, UniProt P05067); assay: Globulomer capture assay in CSF (Example 6): Abeta 1-40 noise; type: binding; conditions: Abeta 1-40 signal (noise), CSF samples
T3 construct: Abeta 1-40 monomer capture level; from tissue; host or cells: cerebrospinal fluid (matrix of the assay)
Method: as §1, §2, §3

PrP^Sc = PrP^Sc (Mesocricetus auratus, UniProt P04273)
Aβ(1-42) aggregates = target: T4, Aβ(1-42) aggregates (Homo sapiens, UniProt P05067); type: binding
T4 construct: For Aβ(1-42), 10 nL of 10% brain homogenate was added to each well; from tissue; host or cells: Alzheimer's disease patient brain homogenate

tau aggregates = type: binding, human
normal CSF Aβ42 = target: T5, normal CSF Aβ42 (Homo sapiens, UniProt P05067); assay: NMPA with detergent washing: background from unspiked CSF, Abeta42; type: binding; conditions: CSF; PSR1 beads treated with detergent post capture
T5 construct: reduced the detection of normal CSF Aβ42 to the background levels; from tissue; host or cells: pooled normal cerebrospinal fluid
Method: Second, two neutral detergents, polyethylene glycol sorbitan monolaurate (available as TWEEN 20 from Sigma-Aldrich, St. Louis, Mo.) and n-tetradecyl-N,N-dimethyl-3-ammonio-1-propanesulfonate (available as ZWITTERGENT 3-14 from EMI) Chemicals, Gibbstown, N.J.) were used to treat the globulomer-spiked CSF samples that had been contacted with PSR1 beads. For each assay, a mixture of 30 μl of PSR1 beads (coated at about 7-12 nmol PSR1 ligand/mg DYNAL beads, which were used in this example and in the following examples unless otherwise stated) and 70 μl of 1×TBSTT was immediately pipetted into each well on the pulldown plate. The liquid was removed on a magnetic separator. Fifty micro liters of 5×TBSTT was added to each well. The beads were suspended by briefly shaking at 750 rpm. Next […] of TBSTT or CSF sample without globulomer was added to each well. The pulldown plate was sealed and incubated at 37° C. for 1 hour with shaking at 500 rpm. After incubation, the beads were washed 8 times with TBST on the plate washer. After the plate wash, residual TBST buffer was removed from the beads on the magnetic separator. The beads were then incubated with 100 μl of either TBS, 1% Tween20 or 1% Zwittergent 3-14 for 30 minutes at room temperature at 750 rpm, (followed by an additional 8 washes with TBST on the plate washer. After removing residual TBST on the magnetic separator, 20 μl of denaturing solution, typically 0.1-0.15 N NaOH, was added to the beads. The plate was covered with an aluminum foil plate sealer and incubated at 80° C. for 30 minutes with shaking at 750 rpm. After incubation, the plate was cooled to room temperature and twenty micro liters of neutralizing solution, typically 0.12-0.18 M NaH2PO4+0.4% Tween20) was added into each well and the plate was incubated at room temperature for 5 minutes with shaking at 750 rpm. […] MSD Abeta Triplex Assay was preformed according to the manufacturer's instructions.
A summary of the assay results and calculated signal/noise is shown below in Table 17.

Abeta 42 globulomer = Abeta 42 globulomer (Homo sapiens, UniProt P05067); assay: NMPA with detergent washing after PSR1 pulldown: globulomer detection; type: binding
[4] = target: T6, Aβ40 aggregates in AD CSF (Homo sapiens, UniProt P05067); assay: Discrimination between AD and normal CSF; type: binding; conditions: AD CSF; detergent wash; data not shown
T6 construct: from tissue; host or cells: pooled cerebrospinal fluid (normal or AD)
Method: The Ab42 aggregates were prepared as previously described: fibrils were prepared per Stine et al (JBC 2003, 278, p11612), globulomers were prepared per Barghorn et al (J Neurology 2005 95 p834), ADDLs were prepared per Lambert et al (PNAS 1998, 95 p6448), and ASPDs were prepared per Noguchi et al (JBC 2009 284 p32895). Normal CSF was pooled from clinically characterized non-demented patient CSF samples. AD CSF was pooled from clinically-characterized AD patient samples. Alzheimer's Disease Brain Homogenate (ADBH) was prepared by sonication of clinically diagnosed AD patient brain samples in 0.2M.sucrose (1:10 w/v).
For the capture assay (Misfolded Protein Assay), aliquots of the beads (30 ul) were added to wells of a 96 well plate, followed by 125 ul of sample in 80:20 CSF:TBSTT. The plate was sealed and incubated for 1 h at 37 C with shaking. The plate was washed with TBST and the residual buffer removed. A denaturing solution (0.1 N NaOH) was added to each well and the plate heated to 80 C. for 30 min with shaking. After cooling the plate to RT, a neutralizing buffer (0.12 M NaH2PO3-0.4% TW20,) was added and the plate shaken briefly at RT. The assay was analyzed using the triplex Mesoscale Discovery ELISA kit for Aβ. The Aβ in the samples eluted from the beads were detected per the manufacturer's protocol.
For discriminating between AD and normal CSF, pooled normal CSF or pooled Alzheimer's Disease patient CSF, were assayed per the protocol described above.

Sequence of PrP^Sc (P04273 23-231 limits assumed): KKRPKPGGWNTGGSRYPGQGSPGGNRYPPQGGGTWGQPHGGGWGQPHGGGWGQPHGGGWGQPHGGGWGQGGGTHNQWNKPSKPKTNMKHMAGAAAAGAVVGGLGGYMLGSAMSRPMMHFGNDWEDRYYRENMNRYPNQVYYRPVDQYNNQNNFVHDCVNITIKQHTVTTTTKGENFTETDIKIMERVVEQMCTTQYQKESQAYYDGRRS

AKFKKK was tested, and the globulomer capture (Abeta 1-42 globulomer [1]) was “improved globulomer capture relative to nonaromatic residues”.

For DDDDDD, the “capture of oligomers (relative light units from the Abeta ELISA)” value [2] was “little enrichment of the oligomeric species”.

For FKFKKK, the globulomer capture (Abeta 1-42 globulomer [3]; Abeta42 globulomer spiked into CSF, reagents on beads) was “captured globulomers specifically” and the globulomer capture (Abeta 1-42 globulomer [1]) was “improved globulomer capture relative to nonaromatic residues”.

In the case of HHHHHH, the “capture of oligomers (relative light units from the Abeta ELISA)” value [2] is reported as “little enrichment of the oligomeric species”.

With KKKKKK the “capture of oligomers (relative light units from the Abeta ELISA)” value [2] was “significant capture”, the “42:40 (signal:noise ratio)” value (Abeta 1-42 globulomer [3]; 1 ng/ml average reading, ratio of 42 to 40) was 3.3 and the “42, 1 ng/ml average reading” value (Abeta 1-42 globulomer [3]; Abeta 1-42 globulomer spiked at 1 ng/mL into CSF) was 658 RLUs. For the same substance, the “40, 1 ng/ml average reading” value (Abeta 1-40 monomer) was 197 RLUs.

KKKWKW was tested, and the “capture of oligomers (relative light units from the Abeta ELISA)” value [2] was “increased capture efficiency relative to the corresponding peptides with aliphatic hydrophobic residues or no hydrophobic residues”.

With Nab-Nab-Nab-Nab-Nab-Nab [++++++] the “PrP^Sc capture signal” value (PrP^Sc) was “Signal was observed with the 100 or 300 ng/mL spike levels”.

In the case of Nab-Nab-Nab-Nab-Nab-Nab-Nab [+++++++], the “limit of detection for Aβ(1-42) capture” value (Aβ(1-42) aggregates) is reported as 1.6 mL/assay and 2.5 mL/assay and the “total Tau signal, AD vs normal brain homogenate” value (tau aggregates) is reported as “higher signals in the AD samples relative to the normal brain homogenates”.

“n-Hexadecyl-N,N-dimethyl-3-ammonio-1-propanesulfonate [ZW3-16]” was tested, and the “Abeta 42 RLU, 0 ng/mL Abeta 42 globulomer, Average” value (normal CSF Aβ42) was 67.0 RLU, the “signal/noise of globulomer detection” value (Abeta 42 globulomer) was “improved the signal/noise ratio for Abeta 42 globulomer detection more significantly” and the “S/N Abeta 42 globulomer-spiked/unspiked” value (Abeta 42 globulomer; 0.5 ng/mL vs 0 ng/mL globulomer) was 10.9. The “S/N Abeta 42 globulomer-spiked/Abeta 40” value (Abeta 42 globulomer; Abeta 42 RLU at 0.5 ng/mL over average Abeta 40 RLU) was 3.7, the “Abeta 42 RLU, 0.5 ng/mL Abeta 42 globulomer, Average” value (Abeta 42 globulomer; CSF, PSR1 beads treated with detergent post capture) was 730.7 RLU and the “Abeta 40 aggregates capture S/N” value [4] was “improved Abeta 40 aggregates capture S/N even more significantly in AD CSF”.

From patent US20130109581A1, “POSITIVELY CHARGED SPECIES AS BINDING REAGENTS IN THE SEPARATION OF PROTEIN AGGREGATES FROM MONOMERS” (priority 2009, published 2013)
